By stoichiometry N is commonly meant the number of molecules, sites or subunits per partner or assembly.

This data set deals with the molecule itself. The experiment in a line: crystal structure.

B1: hexon protein of HAdV5^HVR7 (human adenovirus type 5 with four mutations in hypervariable region 7 of the hexon) (natural protein)
chain: MATPSMMPQWSYMHISGQDASEYLSPGLVQFARATETYFSLNNKFRNPTVAPTHDVTTDRSQRLTLRFIPVDREDTAYSYKARFTLAVGDNRVLDMASTYFDIRGVLDRGPTFKPYSGTAYNALAPKGAPNPCEWDEAATALEINLEEEDDDNEDEVDEQAEQQKTHVFGQAPYSGINITKEGIQIGVEGQTPKYADKTFQPEPQIGESQWYETEINHAAGRVLKKTTPMKPCYGSYAKPTNENGGQGILVKQQNGKLESQVEMQFFSTTEATAGNGDNLTPKVVLYSEDVDIETPDTHISYMPTIKEGNSRELMGQQSMPNRPNYIAFRDNFIGLMYYNSTGNMGVLAGQASQLNAVVDLQDRNTELSYQLLLDSIGDRTRYFSMWNQAVDSYDPDVRIIENHGTEDELPNYCFPLGGVGNNSTYTKVKPKTGQENGWEKDATEFSDKNEIRVGNNFAMEINLNANLWRNFLYSNIALYLPDKLKYSPSNVKISDNPNTYDYMNKRVVAPGLVDCYINLGARWSLDYMDNVNPFNHHRNAGLRYRSMLLGNGRYVPFHIQVPQKFFAIKNLLLLPGSYTYEWNFRKDVNMVLQSSLGNDLRVDGASIKFDSICLYATFFPMAHNTASTLEAMLRNDTNDQSFNDYLSAANMLYPIPANATNVPISIPSRNWAAFRGWAFTRLKTKETPSLGSGYDPYYTYSGSIPYLDGTFYLNHTFKKVAITFDSSVSWPGNDRLLTPNEFEIKRSVDGEGYNVAQCNMTKDWFLVQMLANYNIGYQGFYIPESYKDRMYSFFRNFQPMSRQVVDDTKYKDYQQVGILHQHNNSGFVGYLAPTMREGQAYPANFPYPLIGKTAVDSITQKKFLCDRTLWRIPFSSNFMSMGALTDLGQNLLYANSAHALDMTFEVDPMDEPTLLYVLFEVFDVVRVHRPHRGVIETVYLRTPFSAGNATT
modifications: biotin (NHS-biotin), for the SPR only
notes: also called HAdV5^HVR7 hexon
B1: the “stoichiometry N” value stood at 3.

For the origin of these results see article PMC5792622 (Nature Communications, 2018).
